Data on seven molecules can be found in article PMC11260452, “Cooperative Gsx2–DNA binding requires DNA bending and a novel Gsx2 homeodomain interface”.

Where a chain is given by its changes, count along the chain named.

For data set [1], the target named is T1, Gsx2 167-305 (Mus musculus, UniProt P31316 167-305). Put plainly: EMSA; similar free probe depletion, lower cooperativity; ITC: 50 mM sodium phosphate pH 6.5, 150 mM NaCl, 20 C; EMSA: 35 nM probe, 15 min room temperature, buffer as in cited ref 31. The conditions noted are these: protein: recombinant; tags: N-terminal His-tag, cleaved with PreScission; chain copies: 2; label: 5' IRDye700 on complementary strand (linker S14); blunt. A general note: A gel shift assay detects complexes by their altered migration in electrophoresis.

The target of data set [2] is T2, Gsx2HD L216E (Mus musculus, UniProt P31316 203-264, L216E). Kind of data set: EMSA; binds; reduced cooperativity; ITC: 50 mM sodium phosphate pH 6.5, 150 mM NaCl, 20 C; EMSA: 35 nM probe, 15 min room temperature, buffer as in cited ref 31. The conditions noted are these: protein: recombinant; tags: N-terminal His-tag, cleaved with PreScission; label: 5' IRDye700 on complementary strand (linker S14); blunt.

In data set [3] the target is T3, Gsx2HD L231E (Mus musculus, UniProt P31316 203-264, L231E). Described as above. The conditions noted are these: protein: recombinant; tags: N-terminal His-tag, cleaved with PreScission; label: 5' IRDye700 on complementary strand (linker S14); blunt.
Data set [4] has as its target T4, Gsx2HD S212E (Mus musculus, UniProt P31316 203-264, S212E). Described as above. The conditions noted are these: protein: recombinant; tags: N-terminal His-tag, cleaved with PreScission; label: 5' IRDye700 on complementary strand (linker S14); blunt.
The target of data set [5] is T2, Gsx2HD L216E. Put plainly: EMSA; binds equally to WT; little to no cooperativity; ITC: 50 mM sodium phosphate pH 6.5, 150 mM NaCl, 20 C; EMSA: 35 nM probe, 15 min room temperature, buffer as in cited ref 31. The note with it: protein: recombinant; tags: N-terminal His-tag, cleaved with PreScission; label: 5' IRDye700 on complementary strand (linker S14); blunt.
For data set [6], the target named is T3, Gsx2HD L231E. Described as above. The note with it: protein: recombinant; tags: N-terminal His-tag, cleaved with PreScission; label: 5' IRDye700 on complementary strand (linker S14); blunt.
The target of data set [7] is T4, Gsx2HD S212E. Described as above. The conditions noted are these: protein: recombinant; tags: N-terminal His-tag, cleaved with PreScission; label: 5' IRDye700 on complementary strand (linker S14); blunt.
For data set [8], the target named is T1, Gsx2 167-305. Kind of data set: ITC; K 0.7 ± 0.2 x10^7 M-1; N 0.94; ITC: 50 mM sodium phosphate pH 6.5, 150 mM NaCl, 20 C; EMSA: 35 nM probe, 15 min room temperature, buffer as in cited ref 31. The note with it: protein: recombinant; tags: N-terminal His-tag, cleaved with PreScission; chain copies: 2; 5' overhang 1 nt on each strand.
In data set [9] the target is T5, Gsx1HD (Mus musculus, UniProt P31315 146-207). Kind of data set: ITC; K 2.4 ± 0.9 x10^7 M-1; N 0.97; ITC: 50 mM sodium phosphate pH 6.5, 150 mM NaCl, 20 C; EMSA: 35 nM probe, 15 min room temperature, buffer as in cited ref 31. The note with it: protein: recombinant; 5' overhang 1 nt on each strand. (Isothermal titration calorimetry measures the heat released or taken up as one component is titrated into another.)

The target in data set [10] is T6, Gsx2HD (Mus musculus, UniProt P31316 203-264). Put plainly: ITC; K 2.8 ± 1.4 x10^7 M-1; N 0.98; ITC: 50 mM sodium phosphate pH 6.5, 150 mM NaCl, 20 C; EMSA: 35 nM probe, 15 min room temperature, buffer as in cited ref 31. The conditions noted are these: protein: recombinant; tags: N-terminal His-tag, cleaved with PreScission; chain copies: 2; 5' overhang 1 nt on each strand.

Data set [11] deals with T1, Gsx2 167-305. Put plainly: ITC; K 1.3 ± 0.6 x10^7 M-1; N 0.85; ITC: 50 mM sodium phosphate pH 6.5, 150 mM NaCl, 20 C; EMSA: 35 nM probe, 15 min room temperature, buffer as in cited ref 31. The conditions noted are these: protein: recombinant; tags: N-terminal His-tag, cleaved with PreScission; chain copies: 2; 5' overhang 1 nt on each strand.
Data set [12] has as its target T5, Gsx1HD. Kind of data set: ITC; K 5.5 ± 0.8 x10^7 M-1; N 0.96; ITC: 50 mM sodium phosphate pH 6.5, 150 mM NaCl, 20 C; EMSA: 35 nM probe, 15 min room temperature, buffer as in cited ref 31. The note with it: protein: recombinant; 5' overhang 1 nt on each strand.
The target in data set [13] is T6, Gsx2HD. Put plainly: ITC; K 6.8 ± 4.2 x10^7 M-1; N 1.02; ITC: 50 mM sodium phosphate pH 6.5, 150 mM NaCl, 20 C; EMSA: 35 nM probe, 15 min room temperature, buffer as in cited ref 31. The note with it: protein: recombinant; tags: N-terminal His-tag, cleaved with PreScission; chain copies: 2; 5' overhang 1 nt on each strand.
Data set [14] deals with Gsx2HD I234E (Mus musculus, UniProt P31316 203-264, I234E). Kind of data set: ITC; K 5.1 ± 4.2 x10^7 M-1; N 1.05; Fig S6 isotherm 14.7 nM; ITC: 50 mM sodium phosphate pH 6.5, 150 mM NaCl, 20 C; EMSA: 35 nM probe, 15 min room temperature, buffer as in cited ref 31. The conditions noted are these: protein: recombinant; tags: N-terminal His-tag, cleaved with PreScission; 5' overhang 1 nt on each strand.
Gsx2HD I234E, sequence (P31316 203-264 I234E): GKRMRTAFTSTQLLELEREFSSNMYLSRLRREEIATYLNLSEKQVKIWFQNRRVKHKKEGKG

T1 sequence (P31316 167-305): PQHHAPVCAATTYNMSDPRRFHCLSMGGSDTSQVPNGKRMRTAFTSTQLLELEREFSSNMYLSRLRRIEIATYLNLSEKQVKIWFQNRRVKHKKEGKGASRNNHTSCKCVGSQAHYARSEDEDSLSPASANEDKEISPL
T5 sequence (P31315 146-207): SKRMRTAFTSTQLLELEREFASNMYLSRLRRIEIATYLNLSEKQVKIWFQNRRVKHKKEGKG
T4 sequence (P31316 203-264 S212E): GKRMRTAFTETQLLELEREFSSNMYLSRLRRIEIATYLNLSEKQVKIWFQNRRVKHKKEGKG
T6 sequence (P31316 203-264): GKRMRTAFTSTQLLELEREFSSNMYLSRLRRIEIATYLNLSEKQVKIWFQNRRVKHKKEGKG
T2 sequence (P31316 203-264 L216E): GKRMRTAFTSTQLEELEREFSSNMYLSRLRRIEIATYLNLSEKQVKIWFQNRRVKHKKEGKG
T3 sequence (P31316 203-264 L231E): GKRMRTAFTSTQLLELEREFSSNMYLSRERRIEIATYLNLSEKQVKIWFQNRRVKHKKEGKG

B1: GCGGG spacer dimer probe (dsDNA)
DNA 1: TCCAACTAATTAGCGGGTAATTCGTAGTGCGGGCGTGGCT
DNA 2: AGCCACGCCCGCACTACGAATTACCCGCTAATTAGTTGGA
With B1, in [1], the “cooperativity factor (tau)” value is 12.6 tau cooperativity factor (mean of 3 G/C spacer probes).

B2: 7bpS / AAATT spacer dimer probe (dsDNA)
DNA 1: B1 DNA 1 with G13A, C14A, G15A, G16T, G17T
DNA 2: B1 DNA 2 with C24A, C25A, C26T, G27T, C28T
As to B2, the binding result in data set [2], in data set [3] and in [4] was “binds” in each case.

B3: GGGCC spacer dimer probe (dsDNA)
DNA 1: B1 DNA 1 with C14G, G16C, G17C
DNA 2: B1 DNA 2 with C24G, C25G, G27C
Take B3: the “cooperativity factor (tau)” value in data set [1] was 12.6 tau cooperativity factor (mean of 3 G/C spacer probes).

B4: GCCGG spacer dimer probe (dsDNA)
DNA 1: B1 DNA 1 with G15C
DNA 2: B1 DNA 2 with C26G
On to B4, for which the “cooperativity factor (tau)” value in data set [1] is 12.6 tau cooperativity factor (mean of 3 G/C spacer probes).

B5: 8bpS dimer probe (dsDNA)
DNA 1: TCCAACTAATTAAAGATTTAATTCGTAGTGCGGGCGTGGCT
DNA 2: AGCCACGCCCGCACTACGAATTAAATCTTTAATTAGTTGGA
For B5, the binding result in data set [5], in data set [6] and in data set [7] was “binds” each time.

B6: TAATGG 15-mer (Common Q50 site) (dsDNA)
DNA 1: TGAGCTAATGGAAGC
DNA 2: AGCTTCCATTAGCTC
By Kd is commonly meant the constant that tells how readily two partners part at equilibrium. B6: the Kd in data set [8] was found to be 143 nM; in [9] it was 42 nM; in data set [10], 36 nM.

B7: TAATTA consensus 15-mer (dsDNA)
DNA 1: TGAGCTAATTAAAGC
DNA 2: AGCTTTAATTAGCTC
For the molecule B7, the Kd in [11] was found to be 77 nM; in data set [12], 18 nM; in [13], 15 nM; in [14], 20 nM.
